From patent US20230147962A1, “FIBROBLAST ACTIVATION PROTEIN LIGANDS FOR TARGETED DELIVERY APPLICATIONS” (PHILOCHEM AG, priority 2020, published 2023) come the findings set out here.

Data set [1] has as its system SK-RC-52.hFAP and SK-RC-52.wt xenografts. The experiment in a line: Ex vivo targeting experiment, SK-RC-52.hFAP and SK-RC-52.wt xenografts. Particulars: 40 nmol intravenous, ex vivo organ images 1 h. In kind it is in vivo, BALB/C nu/nu mice. How it is done: (§1) SK-RC-52.hFAP, HT-1080.hFAP, SK-RC-52.wt cells were grown to 80% confluence and detached with Trypsin-EDTA 0.05%. Cells were re-suspended in HBSS medium to a final concentration of 5×10^7 cells/mL. […] SK-MEL-187 cells were grown to 80% confluence and detached with Trypsin-EDTA 0.05%. Cells were re-suspended in a 1:1 mixture of HBSS:Matrigel to a final concentration of 10×10^7 cells/mL.
(§2) Mice bearing subcutaneous SK-RC-52.hFAP or HT-1080.hFAP tumors on the right flank and SK-RC-52.wt tumor on the left flank were injected intravenously with conjugate 30 (40 nmol in sterile PBS, pH 7.4). […] Cryostat sections ([…]) were cut and nuclei were stained with Fluorescence Mounting Medium (Dako Omnis, Agilent). Images were obtained using an Axioskop2 mot plus microscope (Zeiss) and analyzed by ImageJ 1.53 software.

The test system of data set [2] is HT-1080.hFAP and SK-RC-52.wt xenografts. Kind of data set: Ex vivo targeting experiment, HT-1080.hFAP and SK-RC-52.wt xenografts. In kind it is in vivo, BALB/C nu/nu mice. Particulars: 40 nmol intravenous, ex vivo organ images 1 h. The method, then:
as §1, §2

The next data set concerns SK-MEL-187 tumour. Particulars: 250 nmol/kg daily for 7 consecutive days.
For data set [3], the system named is SK-RC-52.hFAP and SK-RC-52.wt tumours. To be noted: 250 nmol/kg, 6 hours after intravenous administration.
Description: (§3) SK-RC-52.hFAP (right flank) and SK-RC-52.wt (left flank) xenografted tumors were implanted into female athymic BALB/C nu/nu mice (6-8 weeks of age) as described above, and allowed to grow to an average volume of 0.1 mL.
(§4) Frozen organs were cutted with a scalpel (50 mg), and suspended in 600 μL of 95:5 Acetonitrile/water (0.1% TFA). A solution of D8-MMAE in 3:97 Acetonitrile/water (0.1% FA; internal standard, 50 μL, 50 nM) was added. The samples were mechanically lysed with a Tissue Lyser II (Qiagen, 30 Hz shaking, 15 minutes). Plasma samples (50 μL) were added with a solution of D8-MMAE in 3:97 Acetonitrile/water (0.1% FA; internal standard, 50 μL, 50 nM) and proteins were precipitated by addition of 600 μL of 95:5 Acetonitrile/water (0.1% TFA). Proteins from both organs and plasma samples were pelleted by centrifugation and supernatants were dried with a vacuum centrifuge. Solid remanences were resuspended in 1 mL of 3:97 Acetonitrile/water (0.1% TFA) and solutions were cleaned up through a first purification step on HBL Oasis columns and a second purification on C18 Macro Spin Columns. Purified dried eluates were resuspended in 150 μL of 3:97 Acetonitrile/water (0.1% FA) and analyzed by MS. All samples were analysed by liquid chromatography-tandem mass spectrometry (LC-MS/MS) using a Q Exactive Mass Spectrometer fitted with an EASY-nLC 1000 (both Thermo Fisher Scientific). Analytes were resolved with an Acclaim PepMap RSLC C18, 50 m×150 mm, 2 m analytical column (Thermo Fisher Scientific) at a flow rate of 0.3 It/min by running a linear gradient from 3% to 50% ACN over 60 min. All buffers contained 0.1% formic acid. MS spectra were recorded in SIM scan mode with a resolution of 70000 and a maximum injection time of 100 ms. MS/MS were recorded at a resolution of 35000 and a maximum injection time of 250 ms.
(§5) Raw files were then analysed with the Skyline software. MS1 areas of the two ions were used for quantification.
The nature of another data set: in vivo. To be noted: female, BALB/C nu/nu, mouse, iv, 250 nmol/kg.
The next data set concerns SK-RC-52.hFAP tumour. Kind of data set: Therapy experiment in SK-RC-52.hFAP tumour bearing mice. Particulars: 500 nmol/kg intravenously from day 8 for 6 consecutive days.

Description for SK-MEL-187 tumour: SK-MEL-187 xenografted tumours were implanted into female athymic BALB/C nu/nu mice (6-8 weeks of age) as described above, and allowed to grow to an average volume of 0.1 mL. Mice were randomly assigned into therapy groups of 3 animals. […] Tumours were measured with an electronic caliper and animals were weighted daily. Tumour volume (mm^3) was calculated with the formula (long side, mm)×(short side, mm)×(short side, mm)×0.5 (FIG. 8). Prism 6 software (GraphPad Software) was used for data analysis (regular two-way ANOVA followed by Bonferroni test).
Description for SK-RC-52.hFAP tumour: SK-RC-52.hFAP xenografted tumors were implanted into female athymic BALB/C nu/nu mice (6-8 weeks of age) as described above, and allowed to grow to an average volume of 0.1 mL.
Mice were randomly assigned into 8 therapy groups of 4 animals each (5 single-agent groups, 2 combination groups and vehicle group). […] L19-IL2 was diluted at 330 μg/mL in the appropriate formulation buffer and intravenously administered at the dose of 2.5 mg/kg.
Mice in single-agent groups received daily injections of ESV6-ValCit-MMAE, QCOOH-ValCit-MMAE or L 19-IL2.
Mice in combination groups received daily injections of ESV6-ValCit-MMAE on day 8,10 and 12 after tumor implantation, and of L 19-IL2 on day 9,11 and 13 after tumor implantation.
Tumors were measured with an electronic caliper and animals were weighted daily. Tumor volume (mm^3) was calculated with the formula (long side, mm)×(short side, mm)×(short side, mm)×0.5.
Prism 6 software (GraphPad Software) was used for data analysis (regular two-way ANOVA followed by Bonferroni test).
Description for in vivo: as §3, §4, §5

In the case of `N#C[C@@H]1CC(F)(F)CN1C(=O)CNC(=O)c1ccnc2c(NC(=O)CCC(=O)N[C@@H](CC(=O)O)C(=O)N[C@@H](CCCCN)C(=O)N[C@@H](CC(=O)O)C(=O)N[C@@H](CSC3CC(=O)N(CCCCCNC(=O)c4ccc5c(c4)C(=O)OC54c5ccc(N)c(S(=O)(=O)O)c5Oc5c4ccc(N)c5S(=O)(=O)O)C3=O)C(=O)O)cccc12` (stereo in doubt) [conjugate 30, ESV6-Alexa Fluor 488], in data set [1], the “targeting performance, SK-RC-52.hFAP and SK-RC-52.wt xenografts” value is “localises rapidly, homogeneously and selectively in vivo at the tumour which presents FAP expression 1 hour after the intravenous injection, with an excellent tumour-to-organs selectivity”. Besides, in data set [2], the “targeting performance, HT-1080.hFAP and SK-RC-52.wt xenografts” value was “rapidly, homogeneously and selectively localizes in vivo at the tumour which presents FAP expression 1 hour after the intravenous injection, with an excellent tumour-to-organs selectivity”.

As to `CC[C@H](C)[C@@H]([C@@H](CC(=O)N1CCC[C@H]1[C@H](OC)[C@@H](C)C(=O)N[C@H](C)[C@@H](O)c1ccccc1)OC)N(C)C(=O)[C@@H](NC(=O)[C@H](C(C)C)N(C)C(=O)OCc1ccc(NC(=O)[C@H](CCCNC(N)=O)NC(=O)[C@@H](NC(=O)CCCCCN2C(=O)CC(SC[C@H](NC(=O)[C@H](CC(=O)O)NC(=O)[C@H](CCCCN)NC(=O)[C@H](CC(=O)O)NC(=O)CCC(=O)Nc3cccc4c(C(=O)NCC(=O)N5CC(F)(F)C[C@H]5C#N)ccnc34)C(=O)O)C2=O)C(C)C)cc1)C(C)C` (stereo partly shown) [ESV6-ValCit-MMAE], in the data set with SK-MEL-187 tumour, the “anti-tumour effect (mean tumour volume)” value was “more potent anti-tumour effect as compared with HABERKORN-ValCit-MMAE” and the “tolerability (changes in body weight), acute toxicity” value is given as “lower acute toxicity as compared to HABERKORN-ValCit-MMAE”. In addition, in data set [3], the “accumulation in FAP-negative SK-RC-52 wild type tumours” value is reported as “does not accumulate in FAP-negative SK-RC-52 wild type tumours”, the “uptake at the tumour site (FAP-positive SK-RC-52)” value turned out to be 18 % ID/g and the “uptake in healthy organs” value was “lower than 1 % ID/g”. This molecule registered a tissue uptake at 6 h in “in vivo” (SK-RC-52.hFAP tumour (FAP-positive)) of 18 %ID/g. The tissue uptake at 6 h in the data set “in vivo” (healthy organs) is below 1 %ID/g. Further, the “anti-tumour effect (mean tumour volume)” value in the data set with SK-RC-52.hFAP tumour was “more potent anti-tumour effect as compared with QCOOH-ValCit-MMAE”.

As usually defined, the tissue uptake is the percentage of the injected dose found per gram of tissue. The low end stands for little accumulation, the high end for strong accumulation.
